Experimental findings from publication PMC8164048 are described below.

The target of test [1] is Full-length human low-density lipoprotein receptor-related protein 1 (LRP1) (human) (UniProt Q07954). The test is described as follows: SPR; full-length LRP1 coupled to the chip (Biacore 3000); single-cycle kinetic titration of tau forms (3.8, 11.5, 34.4, 103.3, 310 nM, 3.5-min injections), with Ca2+; Req from a pseudo first-order fit plotted against concentration, KD by nonlinear regression. A general note: Surface plasmon resonance follows binding to a sensor surface in real time, without labels.

Test [2] has the same target. The test is described as follows: SPR; LRP1-coupled chip; lipid-free apoE isoforms injected at 52, 104, 208, 417, 834, 1668 nM; association and dissociation fit globally to a bivalent binding model; KD = 1/KA, KA = (ka1/kd1)*(1+(ka2/kd2)).
For test [3] the target is unchanged. Nature of the test: SPR; LRP1-coupled chip; lipid-free apoE isoforms; equilibrium analysis, Req from a pseudo first-order fit of the association data.

pKd: −log10 of the molar value.

UniProt Q07954, sequence (Q07954 20-4544): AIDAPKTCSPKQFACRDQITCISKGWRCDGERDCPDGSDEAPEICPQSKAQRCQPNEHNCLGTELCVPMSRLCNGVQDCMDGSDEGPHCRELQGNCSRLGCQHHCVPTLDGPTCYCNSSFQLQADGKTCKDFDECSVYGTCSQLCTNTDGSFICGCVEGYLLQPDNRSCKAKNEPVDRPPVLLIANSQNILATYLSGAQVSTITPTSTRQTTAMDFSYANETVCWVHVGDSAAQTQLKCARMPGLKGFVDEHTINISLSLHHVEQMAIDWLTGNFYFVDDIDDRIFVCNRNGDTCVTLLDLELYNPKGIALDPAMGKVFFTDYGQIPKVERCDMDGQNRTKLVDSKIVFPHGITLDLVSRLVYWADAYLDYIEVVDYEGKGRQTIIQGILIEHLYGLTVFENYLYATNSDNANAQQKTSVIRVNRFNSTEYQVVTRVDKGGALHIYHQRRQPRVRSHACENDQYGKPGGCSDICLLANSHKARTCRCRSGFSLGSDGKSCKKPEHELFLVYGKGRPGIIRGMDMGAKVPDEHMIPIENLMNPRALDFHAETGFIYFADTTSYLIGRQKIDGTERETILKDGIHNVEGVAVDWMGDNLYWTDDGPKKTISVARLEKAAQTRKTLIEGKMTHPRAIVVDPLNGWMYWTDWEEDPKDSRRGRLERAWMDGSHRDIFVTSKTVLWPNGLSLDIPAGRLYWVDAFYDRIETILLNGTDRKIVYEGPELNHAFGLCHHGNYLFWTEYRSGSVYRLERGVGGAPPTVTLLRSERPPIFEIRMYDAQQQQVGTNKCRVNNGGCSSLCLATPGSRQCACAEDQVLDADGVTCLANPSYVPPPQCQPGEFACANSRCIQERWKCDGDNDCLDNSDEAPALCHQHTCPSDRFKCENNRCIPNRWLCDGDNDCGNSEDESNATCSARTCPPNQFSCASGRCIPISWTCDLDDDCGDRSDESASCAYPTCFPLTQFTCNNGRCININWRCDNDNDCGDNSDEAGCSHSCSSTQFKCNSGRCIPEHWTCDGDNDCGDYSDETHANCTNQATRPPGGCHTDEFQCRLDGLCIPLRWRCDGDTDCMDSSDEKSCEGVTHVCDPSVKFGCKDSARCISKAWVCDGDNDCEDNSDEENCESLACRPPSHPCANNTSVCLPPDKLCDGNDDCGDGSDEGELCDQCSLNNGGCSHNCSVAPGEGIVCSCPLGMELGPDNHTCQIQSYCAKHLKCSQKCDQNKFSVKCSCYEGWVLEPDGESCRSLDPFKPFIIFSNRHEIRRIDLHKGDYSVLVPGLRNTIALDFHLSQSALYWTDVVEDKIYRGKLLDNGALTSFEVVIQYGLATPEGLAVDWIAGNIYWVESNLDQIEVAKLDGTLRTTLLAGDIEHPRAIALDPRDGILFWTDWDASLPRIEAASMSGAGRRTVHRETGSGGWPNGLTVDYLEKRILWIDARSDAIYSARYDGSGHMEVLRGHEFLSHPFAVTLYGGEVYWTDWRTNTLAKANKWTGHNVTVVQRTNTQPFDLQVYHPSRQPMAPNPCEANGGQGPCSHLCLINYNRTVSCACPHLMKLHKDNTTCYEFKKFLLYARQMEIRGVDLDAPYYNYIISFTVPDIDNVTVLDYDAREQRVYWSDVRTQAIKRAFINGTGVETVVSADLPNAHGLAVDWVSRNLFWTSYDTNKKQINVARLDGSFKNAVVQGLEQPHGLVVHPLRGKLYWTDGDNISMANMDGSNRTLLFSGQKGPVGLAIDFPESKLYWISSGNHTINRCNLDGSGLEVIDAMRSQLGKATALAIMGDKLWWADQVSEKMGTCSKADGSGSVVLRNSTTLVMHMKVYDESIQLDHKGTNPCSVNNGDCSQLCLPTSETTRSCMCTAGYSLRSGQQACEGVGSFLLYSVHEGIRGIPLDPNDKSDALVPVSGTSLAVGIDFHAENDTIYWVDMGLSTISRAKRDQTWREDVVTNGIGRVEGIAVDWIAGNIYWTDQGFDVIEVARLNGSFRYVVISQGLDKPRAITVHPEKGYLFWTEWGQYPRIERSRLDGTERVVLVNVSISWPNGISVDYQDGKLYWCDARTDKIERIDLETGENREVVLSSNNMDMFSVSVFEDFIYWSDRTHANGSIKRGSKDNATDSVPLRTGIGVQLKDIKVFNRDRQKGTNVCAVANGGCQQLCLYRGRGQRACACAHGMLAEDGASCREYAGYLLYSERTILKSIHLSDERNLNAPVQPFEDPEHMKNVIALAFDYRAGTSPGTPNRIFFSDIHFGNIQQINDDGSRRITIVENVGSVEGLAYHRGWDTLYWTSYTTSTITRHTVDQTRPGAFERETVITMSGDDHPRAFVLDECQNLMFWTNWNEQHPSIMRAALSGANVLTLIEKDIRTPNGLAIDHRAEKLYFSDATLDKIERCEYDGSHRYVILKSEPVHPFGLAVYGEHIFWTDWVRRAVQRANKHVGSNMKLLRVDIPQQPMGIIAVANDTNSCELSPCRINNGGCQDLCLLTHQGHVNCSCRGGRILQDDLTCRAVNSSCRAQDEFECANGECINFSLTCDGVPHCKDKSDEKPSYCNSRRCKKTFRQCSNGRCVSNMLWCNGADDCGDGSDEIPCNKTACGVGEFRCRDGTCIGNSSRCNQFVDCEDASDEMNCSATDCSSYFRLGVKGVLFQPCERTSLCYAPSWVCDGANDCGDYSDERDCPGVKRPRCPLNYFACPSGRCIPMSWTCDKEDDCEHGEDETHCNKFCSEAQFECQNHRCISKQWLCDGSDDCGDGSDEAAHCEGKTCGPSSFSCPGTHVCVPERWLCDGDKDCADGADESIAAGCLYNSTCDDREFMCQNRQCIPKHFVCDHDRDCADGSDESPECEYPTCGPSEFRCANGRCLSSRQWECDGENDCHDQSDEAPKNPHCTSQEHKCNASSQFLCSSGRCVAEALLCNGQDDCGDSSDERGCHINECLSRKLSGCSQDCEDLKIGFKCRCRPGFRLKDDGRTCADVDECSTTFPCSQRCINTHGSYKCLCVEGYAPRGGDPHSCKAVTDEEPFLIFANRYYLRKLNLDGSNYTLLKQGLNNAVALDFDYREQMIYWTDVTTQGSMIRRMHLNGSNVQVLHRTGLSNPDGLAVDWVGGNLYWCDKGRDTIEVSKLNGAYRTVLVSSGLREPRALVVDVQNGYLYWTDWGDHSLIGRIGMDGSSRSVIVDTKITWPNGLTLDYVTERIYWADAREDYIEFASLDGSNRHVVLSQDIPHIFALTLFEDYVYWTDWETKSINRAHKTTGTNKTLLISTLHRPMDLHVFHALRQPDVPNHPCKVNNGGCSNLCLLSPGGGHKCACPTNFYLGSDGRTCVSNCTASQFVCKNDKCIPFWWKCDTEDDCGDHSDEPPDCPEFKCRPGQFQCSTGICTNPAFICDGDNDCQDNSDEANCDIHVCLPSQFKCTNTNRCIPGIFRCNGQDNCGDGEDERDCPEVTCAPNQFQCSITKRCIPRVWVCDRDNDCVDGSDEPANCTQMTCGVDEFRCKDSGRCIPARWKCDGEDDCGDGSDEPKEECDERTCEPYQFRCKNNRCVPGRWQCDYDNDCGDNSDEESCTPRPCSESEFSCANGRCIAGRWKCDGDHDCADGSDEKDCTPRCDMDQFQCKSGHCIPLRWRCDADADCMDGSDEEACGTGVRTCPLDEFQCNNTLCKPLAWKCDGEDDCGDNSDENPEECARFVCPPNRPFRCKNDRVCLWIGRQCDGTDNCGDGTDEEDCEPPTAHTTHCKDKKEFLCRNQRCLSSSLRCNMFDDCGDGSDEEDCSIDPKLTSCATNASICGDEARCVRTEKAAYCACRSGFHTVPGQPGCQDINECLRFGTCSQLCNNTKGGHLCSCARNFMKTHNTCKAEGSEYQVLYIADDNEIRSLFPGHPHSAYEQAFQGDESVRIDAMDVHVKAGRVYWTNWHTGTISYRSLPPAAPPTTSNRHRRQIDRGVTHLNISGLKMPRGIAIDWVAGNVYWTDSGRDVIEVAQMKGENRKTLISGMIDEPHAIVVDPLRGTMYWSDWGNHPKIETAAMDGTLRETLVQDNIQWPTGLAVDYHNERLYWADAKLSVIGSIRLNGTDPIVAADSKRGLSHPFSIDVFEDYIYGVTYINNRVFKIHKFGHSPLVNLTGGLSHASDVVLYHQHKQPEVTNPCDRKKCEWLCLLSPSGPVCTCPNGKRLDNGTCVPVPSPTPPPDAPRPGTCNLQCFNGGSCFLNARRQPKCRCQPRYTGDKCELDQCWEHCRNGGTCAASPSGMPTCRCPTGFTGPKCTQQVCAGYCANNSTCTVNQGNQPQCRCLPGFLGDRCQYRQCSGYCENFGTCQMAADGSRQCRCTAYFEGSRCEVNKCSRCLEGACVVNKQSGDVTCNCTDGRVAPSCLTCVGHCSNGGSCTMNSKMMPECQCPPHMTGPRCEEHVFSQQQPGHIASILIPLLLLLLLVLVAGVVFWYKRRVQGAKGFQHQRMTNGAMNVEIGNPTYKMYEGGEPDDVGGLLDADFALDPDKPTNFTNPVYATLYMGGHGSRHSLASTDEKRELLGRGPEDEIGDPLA

For orientation: pKd means the Kd on a negative log10 scale, so that one unit is a factor of ten. A higher pKd goes with a small Kd. On to 9XKQ 2N4R tau (natural protein), for which the negative logarithm of the Kd (pKd) in test [1] is 6.43.
In test [2], “Recombinant human apolipoprotein E2 (lipid-free) (from UniProt P02649 19-317) (ligand)” showed a pKd of 6.28, a ka1 of 34000 M⁻¹ s⁻¹, a ka2 of 0.01 s⁻¹ and a kd1 of 0.086 s⁻¹. The substance also had a kd2 in test [2] of 0.0028 s⁻¹. Besides, the pKd in test [3] was 6.31.
In the case of “Recombinant human apolipoprotein E4 (lipid-free) (from UniProt P02649 19-317) (ligand)”, in test [2], the pKd was 6.69, the ka1 came out at 62000 M⁻¹ s⁻¹, the ka2 was 0.0099 s⁻¹ and the kd1 is 0.065 s⁻¹. Also, in test [2], the kd2 worked out at 0.0027 s⁻¹. The same substance gave a pKd in test [3] of 6.63.
